# From patent US20250382359A1 (BYOMASS, published 2025)
# “And” between values parts separate entries of the source, which are not always exact repeats. Equal values may be shown once.
# T1: GDF15 (ligand used in the GFRAL/RET cell assays) (UniProt Q99988 197-308, limits assumed)
# T1 sequence (looked up): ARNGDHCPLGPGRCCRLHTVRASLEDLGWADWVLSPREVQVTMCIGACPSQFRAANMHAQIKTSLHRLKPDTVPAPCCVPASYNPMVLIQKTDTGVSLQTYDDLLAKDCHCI
# T2: Human GDF15 Fc (human, UniProt Q99988 195-308, limits assumed, biotinylated (EZ-Link Sulfo-NHS-Biotinylation Kit) in the SPR assay)
# T2 construct: also called human GDF15-Fc fusion; biotinylated Human GDF15 Fc; not shown: Fc part
# T2 sequence: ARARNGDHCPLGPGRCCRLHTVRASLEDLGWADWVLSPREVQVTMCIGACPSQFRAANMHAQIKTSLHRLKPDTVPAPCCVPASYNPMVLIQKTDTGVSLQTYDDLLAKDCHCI
# T3: Cyno GDF15 Fc (cyno, UniProt G7PWZ3 193-308, limits assumed)
# T3 construct: also called cyno GDF15-Fc fusion; not shown: Fc part
# T3 sequence: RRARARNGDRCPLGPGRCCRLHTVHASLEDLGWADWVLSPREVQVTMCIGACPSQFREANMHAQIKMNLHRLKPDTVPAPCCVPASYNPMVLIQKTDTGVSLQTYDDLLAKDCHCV
# T4: Mouse GDF15 Fc (mouse, UniProt Q9Z0J7 189-303, limits assumed)
# T4 construct: also called mouse GDF15-Fc fusion; not shown: Fc part
# T4 sequence (looked up): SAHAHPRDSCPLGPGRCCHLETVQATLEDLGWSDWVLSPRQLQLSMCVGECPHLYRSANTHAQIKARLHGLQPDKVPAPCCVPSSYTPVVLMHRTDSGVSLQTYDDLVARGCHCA
# Legend:
# [1] = target: T1, GDF15 (ligand used in the GFRAL/RET …); test: cell-based or functional assay
# [2] = target: T2, Human GDF15 Fc; test: SPR Biacore 8K; biotinylated antigen captured, Fab analyte
# Procedure: Kinetic analysis was conducted at 25° C. in HBS-EP+running buffer (10 mM HEPES pH 7.4, 150 mM NaCl, 3 mM EDTA, 0.05% Surfactant P20) using a Biacore 8K optical biosensor (Cytiva, Marlborough, MA). The sample compartment was maintained at 10° C. for the duration of the experiment. The Biacore 8K can analyze up to 8 separate interactions in a single cycle.
# Each experiment cycle began with an injection (300 s at 2 μL/min) overflow cells 1 and 2 of a 1:100 solution of biotin CAPture reagent (Cytiva) in running buffer. This was followed by an injection (45 s at 10.0 μL/min) of biotinylated human GDF15 (5 nM) overflow cell 2. […] The dissociation of the antibodies were monitored for 3420 s. Finally, an injection (120 s at 10 μL/min) of regeneration solution (6 M Guanidine-HCl in 0.25 M NaOH) overflow cells 1 and 2 prepared the sensor surface for another cycle. Several blank buffer samples were injected (300 s at 30 μL/min) overflow cells 1 and 2 throughout the duration of the experiment and used for reference surface subtraction—each were monitored for the same amount of dissociation time (3420 s) and regenerated under the same conditions as those for the Fab sample injections.
# [3] = target: T3, Cyno GDF15 Fc; test: BLI Octet; antigen on sensor, 100 nM Fab (monovalent)
# [4] = target: T4, Mouse GDF15 Fc; test: as above
# [5] = target: T2, Human GDF15 Fc; test: as above
GDF15 GFRAL RET pERK Fab IC50 pM [1],Kd [2],koff [2],kon [2],Kd [3],Kd [4],Kd [5],Binder
1370 pM,0.599 nM,0.00191 s⁻¹,3.2e+06 M⁻¹ s⁻¹,1.91 nM,31.4 nM,3.88 nM,"GDF15 antibody agent Clone M, Fab (Fab, V domains shown, Fab; CH1 and CL of the Fab not specified; also called Fab of Clone M) VH: QVQLVQSGAEVKKPGASVKVSCKASGYTFDSYGINWVRQAPGQGLEWMGWISAYSGDTAYAQELQGRVTMTTDTSTSTAYMELRSLRSDDTAVYYCVRDTQYGGSPYWGQGTLVTVSS VL: EIVMTQSPATLSVSPGERATLSCRASQSVSSNLAWYQQKPGQAPRLLIYGASTRATGIPARFSGSGSGTEFTLTISSLQSEDFAVYYCQQYNNWPITFGGGTKVEIK"
–,0.0411 nM,4.52e-05 s⁻¹,1.1e+06 M⁻¹ s⁻¹,0.369 nM,1.92 nM,0.613 nM,"GDF15 antibody agent Clone T, Fab (Fab, V domains shown, Fab; CH1 and CL of the Fab not specified; also called Fab of Clone T) VH: QVQLVQSGAEVKKPGASVKVSCKASGYTFTSYGINWVRQAPGQGLEWMGWITAYSGDTNYAQKLQGRVTMTTDTSTSTAYMELRSLRSDDTAVYYCARGPGQYADVDVWGQGTMVTVSS VL: DIQMTQSPSSVSASVGDRVTITCRASQGISSWLAWYQQKPGKAPKLLIYAASSLQSGVPSRFSGSGSGTDFTLTISSLQPEDFATYYCQQASQFPITFGGGTKVEIK"
–,0.0369 nM,4.93e-05 s⁻¹,1.34e+06 M⁻¹ s⁻¹,0.252 nM,1.36 nM,0.48 nM,"GDF15 antibody agent Clone S, Fab (Fab, V domains shown, Fab; CH1 and CL of the Fab not specified; also called Fab of Clone S) VH: QVQLVQSGAEVKKPGASVKVSCKASGYTFTSYGINWVRQAPGQGLEWMGWITAYSGDTNYAQKLQGRVTMTTDTSTSTAYMELRSLRSDDTAVYYCARGPGQYADVDVWGQGTMVTVSS VL: DIQLTQSPSSVSASVGDRVTITCRASQGISPWLAWYQQKPGKAPKLLIYAASSLQSGVPSRFSGSGSGTDFTLTISSLQPEDFATYYCQQANSFPITFGGGTKVEIK"
2.1 µM,0.144 nM,0.000576 s⁻¹,3.99e+06 M⁻¹ s⁻¹,1.56 nM,229 nM,1.58 nM,"GDF15 antibody agent Clone L, Fab (Fab, V domains shown, Fab; CH1 and CL of the Fab not specified; also called Fab of Clone L) VH: QVQLVQSGAEVKKPGASVKVSCKASGYTFASYDIIWVRQAPGQGLEWMGWISALSGDTVYAQKLQGRVTMTTDTSTSTAYMELRSLRSDDTAVYYCARTRHDTSGIRFDYWGQGTLVTVSS VL: DIQMTQSPSSVSASVGDRVTITCRASQGIDSWLAWYQQKPGKAPKLLIYAASSLQSGVPSRFSGSGSGTDFTLTISSLQPEDFATYYCQQVHSFPITFGGGTKVEIK"
701 pM and 1000 pM,0.126 nM,0.0021 s⁻¹,1.66e+07 M⁻¹ s⁻¹,1.72 nM,–,3.68 nM,"GDF15 antibody agent Clone P, Fab (Fab, V domains shown, Fab; CH1 and CL of the Fab not specified; also called Fab of Clone P) VH: QVQLVQSGAEVKKPGATVKVSCKASGYTFDSYGIHWVRQAPGQGLEWMGWITAYSGDTVYAQKLQGRVTMTTDTSTSTAYMELRSLRSDDTAVYYCARESGQTSSALGPWGQGTLVTVSS VL: DIQMTQSPSSVSASVGDRVTITCRASQGISRWLAWYQQKPGKAPKLLIYAASSLQSGVPSRFSGSGSGTDFTLTISSLQPEDFATYYCQQGASFPLTFGGGTKVEIK"

# The next lines start with the binder.
Binder,GDF15 GFRAL RET pERK Fab IC50 pM [1],Kd [2],koff [2],kon [2],Kd [3],Kd [4],Kd [5]
"GDF15 antibody agent Clone E, Fab (Fab, V domains shown, Fab; CH1 and CL of the Fab not specified; also called Fab of Clone E) VH: QVQLVQSGAEVKKPGASVKVSCKASGYTFTSYGINWVRQAPGQGLEWMGWITAYSGDTNYAQKLQGRVTMTTDTSTSTAYMELRSLRSDDTAVYYCARGPGQYADVDVWGQGTMVTVSS VL: DIQMTQSPSSVSASVGDRVTITCRASQGISSWLAWYQQKPGKAPKLLIYAASSLQSGVPSRFSGSGSGTDFTLTISSLQPEDFATYYCQQANSFPITFGGGTKVEIK",46.7 pM,0.0331 nM,8.71e-05 s⁻¹,2.63e+06 M⁻¹ s⁻¹,0.413 nM,3.08 nM,0.921 nM
"GDF15 antibody agent Clone O, Fab (Fab, V domains shown, Fab; CH1 and CL of the Fab not specified; also called Fab of Clone O) VH: QVQLVQSGAEVKKPGATVKVSCKASGYTFDSLGMSWVRQAPGQGLEWMGYISTYSGDTVYAQKLQGRVTMTTDTSTSTAYMELRSLRSDDTAVYYCARESGQQVSALDPWGQGTLVTVSS VL: DIQMTQSPSSVSASVGDRVTITCRASQGISRWLAWYQQKPGKAPKLLIYAASSLQSGVPSRFSGSGSGTDFTLTISSLQPEDFATYYCQQGASFPLTFGGGTKVEIK",–,0.0341 nM,7.11e-05 s⁻¹,2.08e+06 M⁻¹ s⁻¹,0.077 nM,1.6 nM,0.016 nM
"GDF15 antibody agent Clone K, Fab (Fab, V domains shown, Fab; CH1 and CL of the Fab not specified; also called Fab of Clone K) VH: QVQLVQSGAEVKKPGASVKVSCKASGYTFTNEGISWVRQAPGQGLEWMGWISAYTADTFYAQKLQGRVTMTTDTSTSTAYMELRSLRSDDTAVYYCARTRHDTSGLRFDYWGQGTLVTVSS VL: DIQMTQSPSSVSASVGDRVTITCRASQGIDSWLAWYQQKPGKAPKLLIYAASSLQSGVPSRFSGSGSGTDFTLTISSLQPEDFATYYCQQVHSFPITFGGGTKVEIK",169 pM,0.23 nM,0.00112 s⁻¹,4.87e+06 M⁻¹ s⁻¹,2.4 nM,333 nM,2.11 nM
"GDF15 antibody agent Clone I, Fab (Fab, V domains shown, Fab; CH1 and CL of the Fab not specified; also called Fab of Clone I) VH: QVQLVQSGAEVKKPGASVKVSCKASGYTFTDEGINWVRQAPGQGLEWMGWITAYSGDTVYAQKLQGRVTMTTDTSTSTAYMELRSLRSDDTAVYYCARGPGQYADVDVWGQGTMVTVSS VL: DIQMTQSPSSVSASVGDRVTITCRASQGISSWLAWYQQKPGKAPKLLIYAASSLQSGVPSRFSGSGSGTDFTLTISSLQPEDFATYYCQQANSFPITFGGGTKVEIK",111 pM,0.0672 nM,0.000259 s⁻¹,3.85e+06 M⁻¹ s⁻¹,1.38 nM,1.45 nM,1.25 nM
"GDF15 antibody agent Clone J, Fab (Fab, V domains shown, Fab; CH1 and CL of the Fab not specified; also called Fab of Clone J) VH: QVQLVQSGAEVKKPGASVKVSCKASGYTFTSYGINWVRQAPGQGLEWMGWIDAYSGSTNYAQKLQGRVTMTTDTSTSTAYMELRSLRSDDTAVYYCARGPGQYADVDVWGQGTMVTVSS VL: DIQMTQSPSSVSASVGDRVTITCRASQGISSWLAWYQQKPGKAPKLLIYAASSLQSGVPSRFSGSGSGTDFTLTISSLQPEDFATYYCQQANSFPITFGGGTKVEIK",75.1 pM,0.0884 nM,0.000404 s⁻¹,4.57e+06 M⁻¹ s⁻¹,0.769 nM,–,1.28 nM
"GDF15 antibody agent Clone H, Fab (Fab, V domains shown, Fab; CH1 and CL of the Fab not specified; also called Fab of Clone H) VH: QVQLVQSGAEVKKPGSSVKVSCKASGGTFSSYYISWVRQAPGQGLEWMGGIAPISGTASYAQKFQGRVTITADESTSTAYMELSSLRSEDTAVYYCARGLAYDGYFDLWGRGTLVTVSS VL: not shown",24.6 pM,0.117 nM,0.000735 s⁻¹,6.29e+06 M⁻¹ s⁻¹,1.42 nM,50.9 nM,1.24 nM
